From US20220049236A1
Blank lines part the entries; values can stand above or below the substance they belong to.

How the values were obtained:
[1] = biological target: LPD displayed on the surface of yeast cells (EBY100) (Saccharomyces cerevisiae; human) (UniProt P32781); assay: flow cytometry of yeast cells displaying LPD, stained with Atto 633-labelled HSP70; the sample histogram is shifted to the right of the control histogram, whose Median RFU is printed as 26
[2] = biological target: Heat shock 70 kDa protein 6/7 (human) (UniProt P17066); assay: IP from HDF supernatant, LFQ mass spectrometry; ratio against Fc control
Chain of Heat shock 70 kDa protein 6/7 (human) (P17066 whole entry): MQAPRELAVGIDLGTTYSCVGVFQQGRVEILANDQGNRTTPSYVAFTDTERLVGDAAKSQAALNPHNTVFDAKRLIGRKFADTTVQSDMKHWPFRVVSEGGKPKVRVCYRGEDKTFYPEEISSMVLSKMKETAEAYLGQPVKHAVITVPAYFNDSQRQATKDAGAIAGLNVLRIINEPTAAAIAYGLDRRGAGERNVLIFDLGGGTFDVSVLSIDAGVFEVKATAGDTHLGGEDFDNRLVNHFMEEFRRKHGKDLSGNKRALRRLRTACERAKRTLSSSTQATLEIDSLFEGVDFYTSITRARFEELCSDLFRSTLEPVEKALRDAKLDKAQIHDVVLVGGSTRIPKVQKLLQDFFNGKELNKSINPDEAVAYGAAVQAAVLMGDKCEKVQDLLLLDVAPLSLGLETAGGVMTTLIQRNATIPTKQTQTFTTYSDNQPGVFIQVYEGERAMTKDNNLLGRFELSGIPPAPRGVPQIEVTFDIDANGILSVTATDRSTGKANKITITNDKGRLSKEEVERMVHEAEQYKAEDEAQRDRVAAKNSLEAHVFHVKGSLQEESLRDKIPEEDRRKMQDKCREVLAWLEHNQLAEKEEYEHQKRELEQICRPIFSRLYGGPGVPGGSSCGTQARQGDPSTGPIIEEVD

Nidogen-1 (human) [3] = biological target: Nidogen-1 (human) (UniProt P14543); assay: as above
Chain of Nidogen-1 (human) (P14543 29-1247 limits assumed): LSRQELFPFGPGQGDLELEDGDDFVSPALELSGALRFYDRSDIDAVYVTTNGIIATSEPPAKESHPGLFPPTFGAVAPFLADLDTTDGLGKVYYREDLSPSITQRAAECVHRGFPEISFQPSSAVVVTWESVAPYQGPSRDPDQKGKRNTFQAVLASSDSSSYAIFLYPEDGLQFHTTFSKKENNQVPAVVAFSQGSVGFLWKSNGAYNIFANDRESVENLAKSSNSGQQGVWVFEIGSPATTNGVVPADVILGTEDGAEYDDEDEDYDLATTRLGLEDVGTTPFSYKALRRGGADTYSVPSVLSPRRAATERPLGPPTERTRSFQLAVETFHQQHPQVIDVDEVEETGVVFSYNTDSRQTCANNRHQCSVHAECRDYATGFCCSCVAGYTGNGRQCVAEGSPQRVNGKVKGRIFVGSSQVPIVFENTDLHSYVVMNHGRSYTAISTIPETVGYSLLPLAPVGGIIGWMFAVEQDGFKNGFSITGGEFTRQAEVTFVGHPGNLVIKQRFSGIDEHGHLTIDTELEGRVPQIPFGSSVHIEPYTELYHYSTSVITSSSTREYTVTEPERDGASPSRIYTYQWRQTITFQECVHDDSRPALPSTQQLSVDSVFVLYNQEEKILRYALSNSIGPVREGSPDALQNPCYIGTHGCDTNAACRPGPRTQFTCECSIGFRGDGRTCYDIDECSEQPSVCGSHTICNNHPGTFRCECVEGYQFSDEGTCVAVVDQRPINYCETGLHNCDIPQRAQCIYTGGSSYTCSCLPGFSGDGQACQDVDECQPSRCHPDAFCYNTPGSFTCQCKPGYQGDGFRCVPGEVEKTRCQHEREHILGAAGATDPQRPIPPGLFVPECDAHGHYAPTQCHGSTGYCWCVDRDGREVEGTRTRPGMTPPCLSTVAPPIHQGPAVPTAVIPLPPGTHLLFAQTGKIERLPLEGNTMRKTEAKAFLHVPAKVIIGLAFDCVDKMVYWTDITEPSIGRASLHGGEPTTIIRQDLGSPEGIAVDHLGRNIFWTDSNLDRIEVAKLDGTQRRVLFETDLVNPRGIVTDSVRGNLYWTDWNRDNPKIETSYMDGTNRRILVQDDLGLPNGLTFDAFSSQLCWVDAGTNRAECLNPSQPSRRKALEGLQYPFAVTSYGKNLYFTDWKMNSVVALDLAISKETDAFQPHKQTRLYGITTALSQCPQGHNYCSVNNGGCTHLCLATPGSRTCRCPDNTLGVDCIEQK

HSP70 [4] = biological target: HSP70 (UniProt P0DMV8); assay: ELISA, plate coated with HSP70
Chain of HSP70 (P0DMV8 whole entry): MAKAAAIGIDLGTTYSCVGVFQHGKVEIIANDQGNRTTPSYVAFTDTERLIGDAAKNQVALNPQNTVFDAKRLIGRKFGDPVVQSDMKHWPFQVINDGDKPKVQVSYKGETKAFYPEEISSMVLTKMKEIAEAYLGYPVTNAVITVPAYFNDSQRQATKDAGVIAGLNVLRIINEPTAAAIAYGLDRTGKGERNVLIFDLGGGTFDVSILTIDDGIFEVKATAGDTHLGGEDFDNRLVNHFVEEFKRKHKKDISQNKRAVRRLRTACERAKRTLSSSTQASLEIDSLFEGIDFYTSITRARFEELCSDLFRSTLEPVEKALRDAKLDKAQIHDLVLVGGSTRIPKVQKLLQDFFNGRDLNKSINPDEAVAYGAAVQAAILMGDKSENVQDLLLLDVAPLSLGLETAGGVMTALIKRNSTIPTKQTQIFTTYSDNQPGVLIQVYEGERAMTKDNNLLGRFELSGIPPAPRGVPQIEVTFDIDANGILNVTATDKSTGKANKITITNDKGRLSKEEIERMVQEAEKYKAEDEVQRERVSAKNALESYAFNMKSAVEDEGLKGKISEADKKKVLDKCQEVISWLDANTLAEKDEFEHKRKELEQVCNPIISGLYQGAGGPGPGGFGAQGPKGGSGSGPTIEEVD

[5] = biological target: Heat shock 70 kDa protein 6/7 (human) (UniProt P17066); assay: IP from HDF supernatant, LFQ mass spectrometry; ratio against the glycosylation mutant
Nidogen-1 (human) [6] = biological target: Nidogen-1 (human) (UniProt P14543); assay: as above
HSP70 [7] = biological target: HSP70 (UniProt P0DMV8); assay: ELISA, plate coated with HSP70, bound protein detected with peroxidase-conjugated anti-human antibody

Median RFU [1]: 130 RFU
Substance: HSP70 (from UniProt P0DMV8 1-641)

Ratio Fc-LPD-N346, 409, 456Q:Fc [2]: 194 | Ratio Fc-LPD-N346, 409, 456Q:Fc (Nidogen-1 (human) [3]): 13.7
Substance: Fc-LPD N346, 362, 409Q (from UniProt P28300 22-169) (Fc fusion)

EC50 (HSP70 [4]): 41 nM | Ratio Fc-LPD:Fc [2]: 78.4 | Ratio Fc-LPD:Fc (Nidogen-1 (human) [3]): 9 | Ratio Fc-LPD:Fc-LPDN346, 409, 456Q [5]: 0.4 | Ratio Fc-LPD:Fc-LPDN346, 409, 456Q (Nidogen-1 (human) [6]): 0.7 | EC50 (HSP70 [7]): 41 nM
Substance: Fc-LPD (lysyl oxidase prodomain fused to Fc antibody fragment) (Fc fusion)
